# From PMC8796303 (ACS Central Science, 2021)
# Target: SARS-CoV-2 spike protein (wild type) (SARS-CoV-2, ancestral (wild type, …, UniProt P0DTC2))
# Assay: lateral flow strip assay
binder,measurement,value
"REGN10933 (receptor binding domain binding antibody) (antibody, V domains shown) VH: QVQLVESGGGLVKPGGSLRLSCAASGFTFSDYYMSWIRQAPGKGLEWVSYITYSGSTIYYADSVKGRFTISRDNAKSSLYLQMNSLRAEDTAVYYCARDRGTTMVPFDYWGQGTLVTVSS VL: DIQMTQSPSSLSASVGDRVTITCQASQDITNYLNWYQQKPGKAPKLLIYAASNLETGVPSRFSGSGSGTDFTFTISGLQPEDIATYYCQQYDNLPLTFGGGTKVEIK",binding result,binds
